Measurements reported in article PMC3788043 (Journal of the American Society for Mass Spectrometry, 2013).

Experiments:
[1] = target: the molecule itself; assay: cross-linking
[2] = target: urease apoprotein (UreABC)3 (Klebsiella aerogenes, UniProt P18316 1-100; P18315 1-106; P18314 1-567); assay: native MS
Chain of urease apoprotein (UreABC)3 (P18316 whole entry, chain 1 of 3): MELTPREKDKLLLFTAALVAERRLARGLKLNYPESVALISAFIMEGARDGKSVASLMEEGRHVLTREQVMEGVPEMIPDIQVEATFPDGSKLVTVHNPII
Chain of urease apoprotein (UreABC)3 (P18315 whole entry, chain 2 of 3): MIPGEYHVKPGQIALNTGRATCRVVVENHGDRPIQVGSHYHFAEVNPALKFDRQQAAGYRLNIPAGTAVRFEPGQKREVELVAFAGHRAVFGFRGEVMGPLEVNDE
Chain of urease apoprotein (UreABC)3 (P18314 whole entry, chain 3 of 3): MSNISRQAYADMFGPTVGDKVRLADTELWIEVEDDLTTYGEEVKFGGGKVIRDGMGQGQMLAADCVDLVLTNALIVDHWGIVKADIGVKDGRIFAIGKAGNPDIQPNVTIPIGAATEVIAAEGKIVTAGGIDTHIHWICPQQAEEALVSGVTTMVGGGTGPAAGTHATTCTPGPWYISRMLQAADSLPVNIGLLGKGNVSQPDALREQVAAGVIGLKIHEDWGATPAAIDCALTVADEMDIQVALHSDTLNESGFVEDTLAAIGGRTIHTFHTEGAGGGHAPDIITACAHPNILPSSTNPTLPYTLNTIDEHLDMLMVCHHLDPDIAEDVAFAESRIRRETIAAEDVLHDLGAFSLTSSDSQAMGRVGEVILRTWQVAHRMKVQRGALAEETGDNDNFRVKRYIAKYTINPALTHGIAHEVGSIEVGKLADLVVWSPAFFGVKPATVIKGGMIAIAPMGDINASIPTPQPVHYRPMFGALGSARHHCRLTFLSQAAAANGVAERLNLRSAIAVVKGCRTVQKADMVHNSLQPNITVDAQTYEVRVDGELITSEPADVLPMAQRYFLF

Row | Binder | binding result [1] | binding result [2]
1 | K165A variant of UreF (natural protein) MSTAEQRLRLMQLASSNLPVGGYSWSQGLEWAVEAGWVLDVAAFERWQRRQMTEGFFTVDLPLFARLYRACEQGDIAAAQRWTAYLLACRETRELREEERNRGAAFARLLSDWQPDCPPPWRSLCQQSQLAGMAWLGVRWRIALPEMALSLGYSWIESAVMAGVALVPFGQQAAQQLILRLCDHYAAEMPRALAAPDGDIGSATPLAAIASARHETQYSRLFRS | binds | –
2 | maltose binding protein fusion of UreD (MBP-UreD) (natural protein, Klebsiella aerogenes, UniProt Q09063 1-270, looked up) MLPPLKKGWQATLDLRFHQAGGKTVLASAQHVGPLTVQRPFYPEEETCHLYLLHPPGGIVGGDELTISAHLAPGCHTLITMPGASKFYRSSGAQALVRQQLTLAPQATLEWLPQDAIFFPGANARLFTTFHLCASSRLLAWDLLCLGRPVIGETFSHGTLSNRLEVWVDNEPLLVERLHLQEGELSSIAERPWVGTLLCYPATDALLDGVRDALAPLGLYAGASLTDRLLTVRFLSDDNLICQRVMRDVWQFLRPHLTGKSPVLPRIWLT | – | binds
3 | MBP-UreD:UreF (complex, Klebsiella aerogenes) chain 1: MLPPLKKGWQATLDLRFHQAGGKTVLASAQHVGPLTVQRPFYPEEETCHLYLLHPPGGIVGGDELTISAHLAPGCHTLITMPGASKFYRSSGAQALVRQQLTLAPQATLEWLPQDAIFFPGANARLFTTFHLCASSRLLAWDLLCLGRPVIGETFSHGTLSNRLEVWVDNEPLLVERLHLQEGELSSIAERPWVGTLLCYPATDALLDGVRDALAPLGLYAGASLTDRLLTVRFLSDDNLICQRVMRDVWQFLRPHLTGKSPVLPRIWLT chain 2: MSTAEQRLRLMQLASSNLPVGGYSWSQGLEWAVEAGWVLDVAAFERWQRRQMTEGFFTVDLPLFARLYRACEQGDIAAAQRWTAYLLACRETRELREEERNRGAAFARLLSDWQPDCPPPWRSLCQQSQLAGMAWLGVRWRIALPEMALSLGYSWIESAVMAGVKLVPFGQQAAQQLILRLCDHYAAEMPRALAAPDGDIGSATPLAAIASARHETQYSRLFRS | – | binds
